# Assay results as given in US20130095122A1, “Peptides or Antibodies Which Bind to Melanoma Inhibitory Activity (MIA) Protein” (priority 2010, published 2013).
# Numbering of substitutions follows the chain as printed. Names may count otherwise.
# T1: MIA protein dimer (Homo sapiens, UniProt Q16674)
# T1 construct: made in house; host or cells: cell-free Rapid Translation System RTS 500 E. coli HY Disulfite Kit (Roche)
# T1 sequence (Q16674 25-131): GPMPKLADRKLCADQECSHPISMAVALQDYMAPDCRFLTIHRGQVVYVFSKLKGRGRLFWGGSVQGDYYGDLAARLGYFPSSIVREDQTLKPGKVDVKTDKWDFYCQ
# B1: peptide JPT61 (peptide)
# peptide: HHHHHHFHWRYPLPLPGQ
# B2: peptide AR71 (Ac-FHWRYPLPLPGQ-NH2) (peptide)
# peptide: Ac-FHWRYPLPLPGQ-NH2
# notes: Dodecapeptide previously identified by phage display
# B3: peptide JPT55 (peptide)
# peptide: FHWH
# notes: also called FHWH
# B4: peptide JPT62 (peptide)
# peptide: FHWRYPLPLPGQHHHHHH
# B5: peptide JPT26 (peptide)
# peptide: WHWRYP
# notes: also called WHWRYP
# B6: peptide JPT79 (peptide)
# peptide: FHWRYPDPDPGQ
# B7: melanoma inhibitory activity (MIA) protein, recombinant human wild type (other)
# chain: T1 sequence (Q16674 25-131)
# notes: In the HTFP assay one copy is labelled with Ru(bpy)3 (in solution) and the other is a biotin conjugate immobilised on streptavidin plates; 15N-enriched MIA was used for NMR; also called wt MIA; MIA wt (RTS)
# B8: MIA mutant T89P (other)
# chain: T1 sequence (Q16674 25-131) with T89P
# notes: Expressed in the RTS in vitro transcription/translation system
# B9: MIA mutant D29G/Y69H (other)
# chain: T1 sequence (Q16674 25-131) with D29G, Y69H
# notes: as for B8
# B10: MIA mutant V46F/S81P (other)
# chain: T1 sequence (Q16674 25-131) with V46F, S81P
# notes: as for B8
# B11: MIA mutant K91N (other)
# chain: T1 sequence (Q16674 25-131) with K91N
# notes: as for B8
# B12: MIA mutant G61R (other)
# chain: T1 sequence (Q16674 25-131) with G61R
# notes: Expressed in the RTS in vitro transcription/translation system, unpurified
# B13: peptide JPT4 (peptide)
# peptide: FHWRYPGPGPGQ
# Legend:
# Sox9 mRNA in human MSC = test: Micromass assay (chondrogenic differentiation induced by TGFβ3); format: cell-based; conditions: after days 3 and 7 (FIG. 8)
# Protocol: For analysis of chondrogenesis human MSC differentiation was performed in high density culture. For this, 3×10^5 cells were seeded into each well of a six-well plate. Cells were cultured for the indicated period in induction medium including DMEM (PAA), high glucose (Sigma), 20% fetal calf serum (FCS, PAN Biotech GmbH), MEM Vitamins (Invitrogen), penicillin (100 U/ml), streptomycin (10 μg/ml) (both Sigma), Amphotericin B (2.5 μg/ml) (PAN Biotech GmbH), 0.1 μM dexamethasone, 1 mM sodium pyruvate, 0.17 mM ascorbic acid-2-phosphate, 0.35 mM proline (all Sigma), insulin (5 μg/ml), transferring (5 μg), selenious acid (5 ng) (ITS Premix, Becton Dickinson) and 10 ng/ml human TGF-β3 (R&D Systems). The medium was changed every second day. All groups were done in triplicate. Each experiment was repeated three times. Analysis was performed on RNA level.
# hMSC = test: Hanging drop assay (chondrogenic differentiation); format: cell-based, human; conditions: after day 4 (FIG. 9)
# Protocol: To generate spheroids the hMSC were detached from the culture flask by adding 1 ml Trypsin-EDTA (Provitro). After incubation for a 5 minutes 1 ml neutralizing solution (Provitro) and 8 ml HMSC proliferation medium were added. After centrifugation for 4 min at 1200 rpm and resuspension in Incomplete Chondrogenesis Induction Medium (DMEM with glucose (4.5 g/L), penicillin (400 units/ml) streptomycin (50 μg/ml), L-glutamine (300 μg/ml), sodium pyruvate (1 mM), L-ascorbic acid 2-phosphate (0.17 mM), L-proline ([…]), dexamethasone (1 μM) and ITS premix (BD Biosciences, Heidelberg, Germany)), the cells were counted and adjusted to 50,000 cells/ml. 20% methocel (6 g methyl cellulose (Sigma-Aldrich, Munich, Germany), 250 ml basal medium)) was added and 25 μl of the cells suspension were dropped onto the cover of a 9 mm petri dish. For each experimental condition 10 drops were used. The petri dish was filled with PBS and the cover dish was inverted and incubated for 72 h under a humidified atmosphere of 8% CO2 at 37° C. for 1, 2, 4 and 7 d followed by RNA isolation or alcian blue staining. For treatment, TGF-beta3 (10 ng/ml, Biomol, Hamburg, Germany) was added. At day 4 NA was extracted and analysed. The experiment was repeated 4 times.
# Mel Im melanoma cells = test: Boyden chamber invasion assay (MIA activity); format: cell-based, human; conditions: MIA pre-incubated with peptide, Mel Im cells (FIG. 7)
# Protocol: Invasion assays were performed in Boyden Chambers containing polycarbonate filters with 8-μm pore size (Neuro Probe, Gaithersburg, Md., USA) essentially as described previously.^13 Filters were coated with matrigel, a commercially available reconstituted basement membrane (diluted 1:3 in H2O; BD Bioscience, Bradford, Mass., USA). The lower compartment was filled with fibroblast-conditioned medium used as a chemo attractant. Mel Im melanoma cells were harvested by trypsinization for 2 min at RT, resuspended in DMEM without FCS at a density 2.5×10^4 cells/mL, and placed in the upper compartment of the chamber. Except for the control experiment with untreated cells and experiments where cells were only treated with the respective peptide, MIA was added to the cell suspension at a final concentration of 200 ng/mL. Peptide AR71 (sequence: Ac-FHWRYPLPLPGQ-NH2) was used at a final concentration of 1 μM. MIA expressing murine B16 melanoma cells stably co-transfected with Sig-AR71-HisTag containing pCMX-PL1 vector^27 and an antibiotic resistance comprising plasmid (pCDNA3), and the respective mock control were also investigated for their ability to migrate. Therefore, cells were harvested by trypsinization for 2 min at RT, resuspended in DMEM without FCS at a density 2.5×10^4 cells/mL, and placed in the upper compartment of the chamber. After incubation at 37° C. for 4 h filters were removed. Cells adhering to the lower surface of the filter were fixed, stained, and counted. Experiments were carried out in triplicates and repeated at least three times.
# MIA protein dimer = molecular target: T1, MIA protein dimer; test: Western blot analysis of MIA dimer bands; format: biochemical; conditions: western blotting, FIG. 6
# Protocol: (§1) Protein samples were denaturated at 70° C. for 10 min after addition of reducing and denaturing Roti-Load buffer (Roth, Karlsruhe, Germany) and subsequently separated on sodium dodecyl sulfate 12.75% polyacrylamid gels (SDS-PAGE) (Invitrogen, Groningen, The Netherlands). In the multimerization studies, MIA protein (1 μg) was incubated with AR71 (2.5 μg) overnight at RT before being treated as described above. After transferring the proteins onto a polyvinylidene fluoride (PVDF) membrane (BioRad, Richmond, Va., USA), the membrane was blocked using 3% BSA/PBS for 1 h at RT and incubated with a 1:150 dilution of primary polyclonal rabbit anti MIA antibody (Biogenes, Berlin, Germany) in 3% BSA/PBS overnight at 4° C. After washing in PBS the membrane was incubated with a 1:2000 dilution of an […] coupled secondary antibody (Chemikon, Hofheim, Germany) for 2 h at RT. Finally, after washing steps, immunoreactions were visualized by nitro blue tetrazolium/5-bromo-4-chloro-3-indolyl phosphate (NBT/BCIP) (Invitrogen, Karlsruhe, Germany) staining.
# [1] = molecular target: B7; test: HTFP competition assay
# [2] = molecular target: B7; test: HTFP competition assay: displacement of MIA-Ru(bpy)3 from immobilised MIA-biotin
# Protocol: (§2) In the control lanes the FP signal of MIA-Ru(bpy)₃ was measured in a well coated with MIA-biotin compared to an uncoated well. The significant increase in FP in the well coated with MIA-biotin indicates binding of MIA-Ru(bpy)₃ to the immobilized MIA-biotin. The binding of MIA-inhibitory compound AR71 promotes dissociation of MIA dimers and displaces the surface-bound MIA-Ru(bpy)₃, as reflected by a decrease in fluorescence polarization signal. […] Pre-incubation of MIA with the respective inhibitory peptide results in a complete neutralization of the MIA effect.
# (§3) All measurements were performed at RT on a Polarstar Optima microplate reader (BMG Labtech, Offenburg, Germany). A 390-10 nm bandpass filter was used for excitation while a 520 nm longpass filter was used for the emission light. Even though the extinction coefficient is higher at longer wavelengths, the inventors chose a shorter excitation wavelength as this led to higher polarization values. MIA-Ru(bpy)₃ was prepared and tested for functional activity as described previously.¹⁴ A MIA-Ru(bpy)₃ concentration of 55 fM was used in all experiments. […] All measurements were performed in DPBS without calcium or magnesium (PAN Biotech GmbH, Aidenbach, Germany).
# [3] = molecular target: the molecule itself; test: HTFP assay: MIA-Ru(bpy)3 on immobilised MIA-biotin, increase in FP signal
# Protocol: as §2, §3
# [4] = molecular target: the molecule itself; test: Western blot, dimer band (FIG. 1B legend)
# Protocol: as §1, with “In” for “Protein samples were denaturated at 70° C. for 10 min after addition of reducing and denaturing Roti-Load buffer (Roth, Karlsruhe, Germany) and subsequently separated on sodium dodecyl sulfate 12.75% polyacrylamid gels (SDS-PAGE) (Invitrogen, Groningen, The Netherlands). In”
# (§4) Having identified the most likely positions of the dimerization interfaces, mutants of MIA were tested for their capability to form dimers by Western blot analysis (FIG. 1B). MIA mutants were expressed in an in vitro transcription/translation system. […] The sites of mutations not affecting functional activity (FIG. 1D, depicted by amino acid labels D29, S81 etc.) are located outside the dimerization regions, whereas G61R (FIG. 1D, depicted by G61) is buried in the dimerization cleft (depicted by the darker grey are in the left panel) in close proximity to the distal loop.
# [5] = molecular target: the molecule itself; test: Western blot for dimer band, RTS-expressed mutant
# Protocol: as §1, with “In” for “Protein samples were denaturated at 70° C. for 10 min after addition of reducing and denaturing Roti-Load buffer (Roth, Karlsruhe, Germany) and subsequently separated on sodium dodecyl sulfate 12.75% polyacrylamid gels (SDS-PAGE) (Invitrogen, Groningen, The Netherlands). In”
# as §4
molecule,measurement,setting,value
HHH (Peptide Sequence identified from HTFP assay screening) [JPT71],induction of Sox9 mRNA by TGFβ3,Sox9 mRNA in human MSC,inhibit the induction of Sox9 mRNA by TGFβ3 significantly
FHWH (Peptide Sequence identified from HTFP assay screening) [JPT55],induction of Aggrecan during differentiation,hMSC,inhibit the induction
same,induction of Sox9 during differentiation,hMSC,inhibit the induction
same,induction of collagen type II during differentiation,hMSC,inhibit the induction
WHF (Peptide Sequence identified from HTFP assay screening) [JPT67],inhibition of MIA-activity (neutralization of the MIA effect on invasion),Mel Im melanoma cells,inhibit MIA-activity
FHWRYPDPDPGQ (Peptide Sequence identified from HTFP assay screening) [JPT79],inhibition of dimerization of MIA,MIA protein dimer,efficiently inhibited
WWW (Peptide Sequence identified from HTFP assay screening) [JPT73],inhibition of MIA-activity (neutralization of the MIA effect on invasion),Mel Im melanoma cells,inhibit MIA-activity
same,induction of Aggrecan during differentiation,hMSC,inhibit the induction
same,induction of Sox9 during differentiation,hMSC,inhibit the induction
same,induction of collagen type II during differentiation,hMSC,inhibit the induction
B1,binding result,[1],binds
B2,binding result,[2],binds
B3,binding result,[1],binds
B4,binding result,[1],binds
B5,binding result,[1],binds
B6,binding result,[1],binds
B7,binding result,[3],binds
B8,binding result,[4],binds
B9,binding result,[4],binds
B10,binding result,[4],binds
B11,binding result,[4],binds
B12,binding result,[5],no binding
B13,binding result,[1],binds
